One substance from paper PMC3079738 can be followed below.

In this assay the target is human CD81 expressed on transfected CHO cells (human) (UniProt P60033). As to the kind of experiment: flow cytometry on cells; CHO cells transfected with human CD81 plasmid (or naive), 5x10^5 cells incubated with crude 293T cell extract containing E2 for 1 h at room temperature in PBS, 2% fetal calf serum, 0.05% NaN3; detected with goat anti-E2 and FITC anti-goat IgG; MFI as percent of wild type E2 on CHO-CD81. Background: Flow cytometry measures light scatter and fluorescence of single cells or particles in a stream.
Sequence of UniProt P60033 (P60033 whole entry): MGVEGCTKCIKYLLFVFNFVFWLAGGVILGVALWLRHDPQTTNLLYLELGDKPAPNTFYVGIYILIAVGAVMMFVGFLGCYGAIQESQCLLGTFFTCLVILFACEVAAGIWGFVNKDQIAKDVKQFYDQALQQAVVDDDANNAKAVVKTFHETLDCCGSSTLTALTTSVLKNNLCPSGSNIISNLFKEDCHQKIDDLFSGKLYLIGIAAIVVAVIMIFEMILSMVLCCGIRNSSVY

On to “E2-W529/A, mutant of the carboxyl terminal truncated HCV E2 protein (aa 364-661), strain H77 (from UniProt P27958 364-661) (domain or fragment)”, for which the CD81 binding activity as percent of the wild type protein (MFI) was below 5%.
